Tested on: Escherichia coli TOP10
Experiment: shrunken log2 fold change of peptide-encoding DNA abundance (4.5 h post-induction vs induction); higher = less antimicrobial activity (less host growth inhibition)
Details: time post-induction: 4.5 h; library: site-saturation at positions 5, 18, 19, 20
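Note: peptides expressed intracellularly from a pBAD plasmid library in pooled LB shake-flask culture, induced with 0.3% L-arabinose, DNA abundance read by NGS, three biological replicates, DESeq2 with apeglm shrinkage.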

Sequence: RRIRWRPPRLPRPRPRPAEQPRP
- shrunken log2 fold change: -0.00651

Sequence: RRIRTRPPRLPRPRPRPISVPRP
- shrunken log2 fold change: -0.0512

Sequence: RRIRLRPPRLPRPRPRPNNPPRP
- shrunken log2 fold change: -0.157

Sequence: RRIRTRPPRLPRPRPRPHYVPRP
- shrunken log2 fold change: -0.0402

Sequence: RRIRNRPPRLPRPRPRPFQWPRP
- shrunken log2 fold change: -0.212

Sequence: RRIRLRPPRLPRPRPRPGNRPRP
- shrunken log2 fold change: -1.09

Sequence: RRIRCRPPRLPRPRPRPYPNPRP
- shrunken log2 fold change: -0.459

Sequence: RRIRQRPPRLPRPRPRPEHAPRP
- shrunken log2 fold change: 0.0519

Sequence: RRIRGRPPRLPRPRPRPTRHPRP
- shrunken log2 fold change: 0.764

Sequence: RRIRLRPPRLPRPRPRPHKNPRP
- shrunken log2 fold change: -0.256

Sequence: RRIRARPPRLPRPRPRPSTKPRP
- shrunken log2 fold change: 0.076

Sequence: RRIRIRPPRLPRPRPRPPVSPRP
- shrunken log2 fold change: -0.116

Sequence: RRIRMRPPRLPRPRPRPSATPRP
- shrunken log2 fold change: 3.21

Sequence: RRIRVRPPRLPRPRPRPPHTPRP
- shrunken log2 fold change: 0.0516

Sequence: RRIRIRPPRLPRPRPRPVYQPRP
- shrunken log2 fold change: -0.649

Sequence: RRIRERPPRLPRPRPRPHLTPRP
- shrunken log2 fold change: 0.0373

Sequence: RRIRVRPPRLPRPRPRPVSTPRP
- shrunken log2 fold change: -0.145

Sequence: RRIRERPPRLPRPRPRPGHYPRP
- shrunken log2 fold change: -0.121

Sequence: RRIRERPPRLPRPRPRPLGGPRP
- shrunken log2 fold change: -0.073

Sequence: RRIRYRPPRLPRPRPRPGMRPRP
- shrunken log2 fold change: 0.561

Sequence: RRIRNRPPRLPRPRPRPPDMPRP
- shrunken log2 fold change: 0.0955

Sequence: RRIRPRPPRLPRPRPRPNTTPRP
- shrunken log2 fold change: -0.131

Sequence: RRIRTRPPRLPRPRPRPLCWPRP
- shrunken log2 fold change: 0.0326

Sequence: RRIRHRPPRLPRPRPRPLREPRP
- shrunken log2 fold change: 0.819

Sequence: RRIRFRPPRLPRPRPRPFGQPRP
- shrunken log2 fold change: -0.288

Sequence: RRIRDRPPRLPRPRPRPKEIPRP
- shrunken log2 fold change: 0.0219

Sequence: RRIRIRPPRLPRPRPRPMLPPRP
- shrunken log2 fold change: -0.0228

Sequence: RRIRGRPPRLPRPRPRPTPWPRP
- shrunken log2 fold change: 0.848

Sequence: RRIRQRPPRLPRPRPRPCQGPRP
- shrunken log2 fold change: -0.0332

Sequence: RRIRPRPPRLPRPRPRPTSIPRP
- shrunken log2 fold change: -0.375

Sequence: RRIRCRPPRLPRPRPRPFDPPRP
- shrunken log2 fold change: -0.0744

Sequence: RRIRNRPPRLPRPRPRPWKHPRP
- shrunken log2 fold change: -0.347

Sequence: RRIRGRPPRLPRPRPRPFVMPRP
- shrunken log2 fold change: -0.0182

Sequence: RRIRYRPPRLPRPRPRPWVVPRP
- shrunken log2 fold change: -0.264

Sequence: RRIRLRPPRLPRPRPRPITVPRP
- shrunken log2 fold change: -0.216

Sequence: RRIRVRPPRLPRPRPRPSVYPRP
- shrunken log2 fold change: -0.25

Sequence: RRIRKRPPRLPRPRPRPGFPPRP
- shrunken log2 fold change: 0.419

Sequence: RRIRFRPPRLPRPRPRPMCEPRP
- shrunken log2 fold change: -0.236

Sequence: RRIRDRPPRLPRPRPRPVDCPRP
- shrunken log2 fold change: -0.0327

Sequence: RRIRHRPPRLPRPRPRPHVEPRP
- shrunken log2 fold change: -0.0794

Sequence: RRIRGRPPRLPRPRPRPTQTPRP
- shrunken log2 fold change: 0.775

Sequence: RRIRHRPPRLPRPRPRPQNYPRP
- shrunken log2 fold change: -1.11

Sequence: RRIRPRPPRLPRPRPRPWNNPRP
- shrunken log2 fold change: -0.561

Sequence: RRIRARPPRLPRPRPRPKVAPRP
- shrunken log2 fold change: 0.698

Sequence: RRIRERPPRLPRPRPRPKHHPRP
- shrunken log2 fold change: -0.217

Sequence: RRIRARPPRLPRPRPRPLPVPRP
- shrunken log2 fold change: 0.174

Sequence: RRIRFRPPRLPRPRPRPIQEPRP
- shrunken log2 fold change: -0.541

Sequence: RRIRVRPPRLPRPRPRPNPLPRP
- shrunken log2 fold change: -0.167

Sequence: RRIRPRPPRLPRPRPRPHMVPRP
- shrunken log2 fold change: -0.0201

Sequence: RRIRFRPPRLPRPRPRPPTRPRP
- shrunken log2 fold change: 0.748

Sequence: RRIRDRPPRLPRPRPRPDYVPRP
- shrunken log2 fold change: -0.0518

Sequence: RRIRSRPPRLPRPRPRPVNWPRP
- shrunken log2 fold change: 0.142

Sequence: RRIRIRPPRLPRPRPRPCKYPRP
- shrunken log2 fold change: -1.03

Sequence: RRIRKRPPRLPRPRPRPKTSPRP
- shrunken log2 fold change: 0.489

Sequence: RRIRKRPPRLPRPRPRPYMQPRP
- shrunken log2 fold change: -0.0263

Sequence: RRIRNRPPRLPRPRPRPSYMPRP
- shrunken log2 fold change: -1.71

Sequence: RRIRPRPPRLPRPRPRPAELPRP
- shrunken log2 fold change: 0.335

Sequence: RRIRCRPPRLPRPRPRPWSVPRP
- shrunken log2 fold change: -0.34

Sequence: RRIRTRPPRLPRPRPRPYYMPRP
- shrunken log2 fold change: -1.06

Sequence: RRIRVRPPRLPRPRPRPLAPPRP
- shrunken log2 fold change: 0.169

Sequence: RRIRHRPPRLPRPRPRPMNGPRP
- shrunken log2 fold change: -0.287

Sequence: RRIRSRPPRLPRPRPRPHNHPRP
- shrunken log2 fold change: -0.576

Sequence: RRIRKRPPRLPRPRPRPTDQPRP
- shrunken log2 fold change: 0.536

Sequence: RRIRERPPRLPRPRPRPFVFPRP
- shrunken log2 fold change: -0.379

Sequence: RRIRGRPPRLPRPRPRPRPWPRP
- shrunken log2 fold change: 0.77

Sequence: RRIRQRPPRLPRPRPRPETPPRP
- shrunken log2 fold change: 0.495

Sequence: RRIRQRPPRLPRPRPRPKYVPRP
- shrunken log2 fold change: 0.178

Sequence: RRIRSRPPRLPRPRPRPFLAPRP
- shrunken log2 fold change: -0.311

Sequence: RRIRSRPPRLPRPRPRPKKVPRP
- shrunken log2 fold change: -0.00648

Sequence: RRIRNRPPRLPRPRPRPMMPPRP
- shrunken log2 fold change: -0.0635

Sequence: RRIRFRPPRLPRPRPRPMGQPRP
- shrunken log2 fold change: -0.0471

Sequence: RRIRNRPPRLPRPRPRPNWWPRP
- shrunken log2 fold change: -0.0262

Sequence: RRIRSRPPRLPRPRPRPNVNPRP
- shrunken log2 fold change: 0.259

Sequence: RRIRARPPRLPRPRPRPRWVPRP
- shrunken log2 fold change: 0.267

Sequence: RRIRARPPRLPRPRPRPCTPPRP
- shrunken log2 fold change: -0.0509

Sequence: RRIRHRPPRLPRPRPRPYIDPRP
- shrunken log2 fold change: -0.0149

Sequence: RRIRSRPPRLPRPRPRPVPIPRP
- shrunken log2 fold change: 0.129

Sequence: RRIRHRPPRLPRPRPRPCLQPRP
- shrunken log2 fold change: -0.148

Sequence: RRIRTRPPRLPRPRPRPVMHPRP
- shrunken log2 fold change: 0.102

Sequence: RRIRFRPPRLPRPRPRPDSQPRP
- shrunken log2 fold change: -0.271

Sequence: RRIRCRPPRLPRPRPRPPSYPRP
- shrunken log2 fold change: -0.457

Sequence: RRIRSRPPRLPRPRPRPNKNPRP
- shrunken log2 fold change: -0.384

Sequence: RRIRGRPPRLPRPRPRPSKMPRP
- shrunken log2 fold change: 0.0491

Sequence: RRIRVRPPRLPRPRPRPYPPPRP
- shrunken log2 fold change: -0.103

Sequence: RRIRSRPPRLPRPRPRPDFIPRP
- shrunken log2 fold change: 0.00191

Sequence: RRIRVRPPRLPRPRPRPSDPPRP
- shrunken log2 fold change: -0.179

Sequence: RRIRHRPPRLPRPRPRPDPFPRP
- shrunken log2 fold change: -0.409

Sequence: RRIRVRPPRLPRPRPRPFPGPRP
- shrunken log2 fold change: 0.03

Sequence: RRIRRRPPRLPRPRPRPGLKPRP
- shrunken log2 fold change: 0.377

Sequence: RRIRWRPPRLPRPRPRPMFLPRP
- shrunken log2 fold change: -0.182

Sequence: RRIRDRPPRLPRPRPRPRKKPRP
- shrunken log2 fold change: 0.0136

Sequence: RRIRPRPPRLPRPRPRPEVRPRP
- shrunken log2 fold change: -0.0106

Sequence: RRIRPRPPRLPRPRPRPCTFPRP
- shrunken log2 fold change: -0.00278

Sequence: RRIRCRPPRLPRPRPRPVWTPRP
- shrunken log2 fold change: 0.0232

Sequence: RRIRIRPPRLPRPRPRPSVTPRP
- shrunken log2 fold change: -0.781

Sequence: RRIRERPPRLPRPRPRPWNHPRP
- shrunken log2 fold change: -1.48

Sequence: RRIRNRPPRLPRPRPRPCWLPRP
- shrunken log2 fold change: -0.7

Sequence: RRIRPRPPRLPRPRPRPCFEPRP
- shrunken log2 fold change: 0.0232

Sequence: RRIRLRPPRLPRPRPRPKAGPRP
- shrunken log2 fold change: 0.221

Sequence: RRIRCRPPRLPRPRPRPDEAPRP
- shrunken log2 fold change: 0.262

Sequence: RRIRERPPRLPRPRPRPVREPRP
- shrunken log2 fold change: 0.242

Sequence: RRIRPRPPRLPRPRPRPYYIPRP
- shrunken log2 fold change: -0.88

Sequence: RRIRIRPPRLPRPRPRPHGNPRP
- shrunken log2 fold change: 0.142

Sequence: RRIRPRPPRLPRPRPRPTAGPRP
- shrunken log2 fold change: 0.252

Sequence: RRIRARPPRLPRPRPRPEMWPRP
- shrunken log2 fold change: 1.21

Sequence: RRIRRRPPRLPRPRPRPHMWPRP
- shrunken log2 fold change: -0.0704

Sequence: RRIRKRPPRLPRPRPRPWSGPRP
- shrunken log2 fold change: 0.104

Sequence: RRIRVRPPRLPRPRPRPLFSPRP
- shrunken log2 fold change: -0.261

Sequence: RRIRQRPPRLPRPRPRPGKEPRP
- shrunken log2 fold change: 0.00212

Source: the supplement of paper PMC9112550, “Optimization of the antimicrobial peptide Bac7 by deep mutational scanning” (BMC Biology, 2022)
